Reference: patent US9492510B2, “Composition and method for inhibiting tumor cell growth” (St. Jude Children's Research Hospital, priority 2006, dated 2016)

B1: rCE: wild-type rabbit liver carboxylesterase, Genbank AF036930 (protein, listed as Oryctolagus cuniculus)
chain: GSLRFAPPQPAESWSHVKNTTSYPPMCSQDAVSGHMLSELFTNRKENIPLKFSEDCLYLNIYTPADLTKRGRLPVMVWIHGGGLMVGGASTYDGLALSAHENVVVVTIQYRLGIWGFFSTGDEHSRGNWGHLDQVAALRWVQDNIANFGGDPGSVTIFGESAGGQSVSILLLSPLTKNLFHRAISESGVALLSSLFRKNTKSLAEKIAIEAGCKTTTSAVMVHCLRQKTEEELMEVTLKMKFMALDLVGDPKENTAFLTTVIDGVLLPKAPAEILAEKKYNMLPYMVGINQQEFGWIIPMQMLGYPLSEGKLDQKTATELLWKSYPIVNVSKELTPVATEKYLGGTDDPVKKKDLFLDMLADLLFGVPSVNVARHHRDAGAPTYMYEYRYRPSFSSDMRPKTVIGDHGDEIFSVLGAPFLKEGATEEEIKLSKMVMKYWANFARNGNPNGEGLPQWPAYDYKEGYLQIGATTQAAQKLKDKEVAFWTELWAKEAARPRETEHIEL
B2: hiCE (human intestinal carboxylesterase) (Homo sapiens) (protein)
chain: QDSASPIRTTHTGQVLGSLVHVKGANAGVQTFLGIPFAKPPLGPLRFAPPEPPESWSGVRDGTTHPAMCLQDLTAVESEFLSQFNMTFPSDSMSEDCLYLSIYTPAHSHEGSNLPVMVWIHGGALVFGMASLYDGSMLAALENVVVVIIQYRLGVLGFFSTGDKHATGNWGYLDQVAALRWVQQNIAHFGGNPDRVTIFGESAGGTSVSSLVVSPISQGLFHGAIMESGVALLPGLIASSADVISTVVANLSACDQVDSEALVGCLRGKSKEEILAINKPFKMIPGVVDGVFLPRHPQELLASADFQPVPSIVGVNNNEFGWLIPKVMRIYDTQKEMDREASQAALQKMLTLLMLPPTFGDLLREEYIGDNGDPQTLQAQFQEMMADSMFVIPALQVAHFQCSRAPVYFYEFQHQPSWLKNIRPPHMKADHGDELPFVFRSFFGGNYIKFTEEEEQLSRKMMKYWANFARNGNPNGEGLPHWPLFDQEEQYLQLNLQPAVGRALKAHRLQFWKKALPQKIQELEEPEERHTEL
B3: hCE1: wild-type human liver carboxylesterase, Genbank M73499 (protein, listed as Homo sapiens)
chain: MWLRAFILATLSASAAWGHPSSPPVVDTVHGKVLGKFVSLEGFAQPVAIFLGIPFAKPPLGPLRFTPPQPAEPWSFVKNATSYPPMCTQDPKAGQLLSELFTNRKENIPLKLSEDCLYLNIYTPADLTKKNRLPVMVWIHGGGLMVGAASTYDGLALAAHENVVVVTIQYRLGIWGFFSTGDEHSRGNWGHLDQVAALRWVQDNIASFGGNPGSVTIFGESAGGESVSVLVLSPLAKNLFHRAISESGVALTSVLVKKGDVKPLAEQIAITAGCKTTTSAVMVHCLRQKTEEELLETTLKMKFLSLDLQGDPRESQPLLGTVIDGMLLLKTPEELQAERNFHTVPYMVGINKQEFGWLIPMLMSYPLSEGQLDQKTAMSLLWKSYPLVCIAKELIPEATEKYLGGTDDTVKKKDLFLDLIADVMFGVPSVIVARNHRDAGAPTYMYEFQYRPSFSSDMKPKTVIGDHGDELFSVFGAPFLKEGASEEEIRLSKMVMKFWANFARNGNPNGEGLPHWPEYNQKEGYLQIGANTQAAQKLKDKEVAFWTNLFAKKAVEKPPQTEHIEL
B4: hCE1 variant hCE1m6 (hCE1mut6; L362M, M363L, K459R, F448Y, Q449R, L358I, S364G, Q362 insertion), SEQ ID NO:3 (Homo sapiens; … (protein)
chain: GHPSSPPVVDTVHGKVLGKFVSLEGFAQPVAIFLGIPFAKPPLGPLRFTPPQPAEPWSFVKNATSYPPMCTQDPKAGQLLSELFTNRKENIPLKLSEDCLYLNIYTPADLTKKNRLPVMVWIHGGGLMVGAASTYDGLALAAHENVVVVTIQYRLGIWGFFSTGDEHSRGNWGHLDQVAALRWVQDNIASFGGNPGSVTIFGESAGGESVSVLVLSPLAKNLFHRAISESGVALTSVLVKKGDVKPLAEQIAITAGCKTTTSAVMVHCLRQKTEEELLETTLKMKFLSLDLQGDPRESQPLLGTVIDGMLLLKTPEELQAERNFHTVPYMVGINKQEFGWIIPMQMLGYPLSEGQLDQKTAMSLLWKSYPLVCIAKELIPEATEKYLGGTDDTVKKKDLFLDLIADVMFGVPSVIVARNHRDAGAPTYMYEYRYRPSFSSDMRPKTVIGDHGDELFSVFGAPFLKEGASEEEIRLSKMVMKFWANFARNGNPNGEGLPHWPEYNQKEGYLQIGANTQAAQKLKDKEVAFWTNLFAKKAVEKPPQTEHIEL

Key:
[1] = test system: topoisomerase I; settings: cited from earlier work
[2] = CPT-11 conversion assay (CPT-11 to SN-38) with extracts of transfected COS-7 cells, HPLC; type: biochemical; settings: Cos7 cell extracts
Text: (§1) Whole cell sonicates were monitored for CE activity. Results were expressed as nmoles o-nitrophenol produced per minute per milligram of total protein. To correct for differences in CE expression within transfected cells, the enzyme activity values were corrected for the level of immunoreactive CE protein as determined using a western blot analysis.
This was necessary since it was unclear whether the mutations would influence the ability of the CEs to metabolize o-NPA, which is used as a measure of enzyme activity.
CPT-11 Conversion Assays. […] An equal volume of acidified methanol was added to terminate the reactions and particulate matter was removed by centrifugation at 100,000 g for 5 minutes at 4° C. Concentrations of both drugs in the supernatant were then determined by HPLC (Guichard, et al. 1998. Clin. Cancer Res. 4:3089-3094; Morton, et al. 2000. Cancer Res. 60:4206-4210).
(§2) Western Analysis. Cell extracts were separated in 4-20% pre-cast SDS-PAGE gels (Invitrogen, Carlsbad, Calif.) and following transfer to Immobilon-P membranes by electroblotting (Matsuidaira. 1990. Methods Enzymol. 182:602-613), western analysis was performed using known methods (Morton & Potter. 1998. J. Pharmacol. Expt. Therap. 286:1066-1073). CEs were identified using an anti-peptide antibody raised against the C-terminal amino acids […] In all experiments, membranes were re-probed with an anti-TFIID antibody to confirm equal loading, and to correct for any differences in total protein. The molecular weight of immuno-reactive bands was determined using pre-stained molecular weight protein markers (Pierce, Rockford, Ill.). Densitometric quantitation of CE expression was performed using One-Dscan gel analysis software (Scanalytics Inc, Fairfax, Va.).

[3] = test system: U373MG cells; assay: Growth inhibition by CPT-11 of U373MG cells; type: cell-based, human; settings: U373MG cells expressing the labelled enzyme
Procedure: Experiments were also performed in human brain tumor cells (U373MG) where the growth of the cells was examined in cells that expressed the mutant form of the human CE enzyme.
Experiments were also performed to determine whether cells expressing a secreted form of hCElm6 (SEQ ID NO:16) produced media that had CE activity.
(§3) Transfection of Cell Lines. Transient transfection of Cos7 cells was achieved by electroporation (Potter, et al. 1998. Cancer Res. 52:2646-2651). For the generation of stable cell lines, cDNAs were ligated into pIRESneo and U373MG cells were electroporated under similar conditions. Transfectants were selected in media containing 400 μg/ml of G418. Since the CE cDNA was linked via an internal ribosome entry sequence (IRES) to the neomycin gene, selection of individual G418-resistant clones was not necessary.
(§4) Construction of Adenovirus. Replication-deficient adenovirus expressing hCElm6 or rCE were constructed using standard protocols (Wierdl, et al. 2001. Cancer Res. 61:5078-5082). Multiplicity of infection (moi) was defined as the number of plaques produced in 1×10^6 293 cells in a total volume of 1 ml of media after incubation with virus for 1 hour.
Growth Inhibition Assays.

[4] = Carboxylesterase (CE) activity of whole cell sonicates of transiently transfected Cos7 cells, o-NPA substrate; type: biochemical
Procedure: as §1
(§5) Carboxylesterase Assays. CE activity was determined using a spectrophotometric assay with 3 mM o-nitrophenyl acetate (o-NPA) as a substrate (Potter, et al. 1998. Cancer Res. 52:2646-2651; Wierdl, et al. 2001. Cancer Res. 61:5078-5082; Beaufay, et al. 1974. J. Cell Biol. 61:188-200). Data were expressed as nmoles o-nitrophenol produced per minute per milligram of protein. To correct for differences in CE expression within transfected cells, the enzyme activity values were corrected for the level of immuno-reactive CE protein as determined from western analyses.
as §3, with “necessary. Routinely, whole cell sonicates obtained from these pooled populations of cells contained 200-500 nmoles/min/mg of CE activity.” for “necessary.”
as §2

[5] = CE activity (o-NPA) in human tumor cell lines expressing CE after plasmid transfection or adenoviral transduction; type: biochemical; settings: for CE Activity: ± SD, U373MG cells stably transfected (pIRESneo) expressing the enzyme; for average levels of CE activity: U373MG cells stably transfected with pIRESneo constructs, monitored over an extended time period
Text: […], it was observed that expression of hiCE following plasmid-mediated transfection was frequently lower than that seen with rCE or […]. […] Since expression of the transgene from this expression vector is co-regulated with the neo gene via an IRES sequence, selection with similar concentrations of G418 should result in cell lines that express approximately equal levels of recombinant protein. However, the average levels of CE activity in U373hiCE, U373hCE1 and U373hCE1m6 cells were 287.6±76.6, 1077.1±77.5, and 466.5±52.6 nmoles/min/mg, respectively.
as §5
as §3, with “necessary. Routinely, whole cell sonicates obtained from these pooled populations of cells contained 200-500 nmoles/min/mg of CE activity.” for “necessary.”
as §4

[6] = Kinetic parameters for CPT-11 hydrolysis by purified recombinant CEs; type: biochemical; settings: hCE1 and rCE values rest on cited data
Procedure: To directly compare the abilities of the mammalian CEs to hydrolyze CPT-11, a series of biochemical studies were carried out using the purified proteins in vitro. These experiments determined the Km, Vmax, kcat and kcat/Km values for the different enzymes.
Protein Purification. […] For hiCE, an alternative purification procedure was developed using DEAE chromatography and elution with a pH/salt gradient.
Determination of Kinetic Parameters for Substrate Hydrolysis.

[7] = In vitro stability of purified CE stored at room temperature in 50 mM Hepes; type: physicochemical; settings: purified protein in 50 mM Hepes pH7.4, room temperature
Procedure: Enzymes were aliquoted in 50 mM Hepes, stored at 20° C. and CE activities were determined at various time intervals, up to 11 weeks. Data are expressed as the amount of active CE remaining as compared to day 0.
Therefore, the loss of CE activity was evaluated in preparations of these proteins, as well as hCElm6 that had been stored at room temperature. In these studies, purified protein was aliquoted in 50 mM Hepes pH7.4, and enzyme activity was determined over a period of 12 weeks.

[8] = substrate: CCc1c2c(nc3ccc(OC(=O)N4CCC(N5CCCCC5)CC4)cc13)-c1cc3c(c(=O)n1C2)COC(=O)[C@]3(O)CC; assay: purified protein, by the assay type; settings: other: CPT-11 hydrolysis
[9] = Table 3, Cos7 whole cell sonicates, 3 mM o-NPA, nmoles o-nitrophenol per min per mg
[10] = Table 4, rCE mutant panel, Cos7 extracts, o-NPA

Row | Molecule | inhibition of topoisomerase I [1] | CPT-11 Converting Activity ([2]; Table 3, 5 μM CPT-11, 1 hour, corrected for CE protein by western) [pmol/hr/mg CE] | CPT-11 Converting Activity ([2]; Table 4, rCE mutant panel) | sensitization of cells to CPT-11 [3] | CE Activity [4, 9] [nmol/min/mg] | CE Activity [4, 10] [nmol/min/mg CE] | CE Activity [5] [nmol/min/mg] | Ratio kcat/Km as compared to hCE1 [6] | time to loss of 50% of CE activity [7] [days] | average levels of CE activity [5] [nmol/min/mg] | Km ([8]; hiCE) [µM] | Km ([8]; hCE1m6) [µM]
1 | CCc1c2c(nc3ccc(O)cc13)-c1cc3c(c(=O)n1C2)COC(=O)[C@]3(O)CC [SN-38, 7-ethyl-10-hydroxy-camptothecin] | potent inhibitor of topoisomerase I | – | – | – | – | – | – | – | – | – | – | –
2 | B1 | – | 41 | 75.6 pmol/hr/mg CE | sensitized | 332.7 ± 17.2 | 243.1 ± 17.0 | 601.0 ± 20.5 | 650 | – | – | – | –
3 | B2 | – | – | – | sensitized | – | – | 408.2 ± 5.6 | 91 | ~30 | 287.6 ± 76.6 | 3.35 ± 0.34 | –
4 | B3 | – | – | Not Detected | not sensitized | 119.0 ± 5.0 | 329.2 ± 11.6 | 1016.4 ± 45.5 | 1 | – | 1077.1 ± 77.5 | – | –
5 | B4 | – | – | – | – | – | – | – | – | – | – | – | 6.25 ± 0.59
